The target in the assay is respiratory complex IV (S. cerevisiae (endogenous in yeast mitochondria)) (UniProt P00410). The assay is described as follows: co-IP.
UniProt P00410, sequence (P00410 whole entry, looked up, one chain of several): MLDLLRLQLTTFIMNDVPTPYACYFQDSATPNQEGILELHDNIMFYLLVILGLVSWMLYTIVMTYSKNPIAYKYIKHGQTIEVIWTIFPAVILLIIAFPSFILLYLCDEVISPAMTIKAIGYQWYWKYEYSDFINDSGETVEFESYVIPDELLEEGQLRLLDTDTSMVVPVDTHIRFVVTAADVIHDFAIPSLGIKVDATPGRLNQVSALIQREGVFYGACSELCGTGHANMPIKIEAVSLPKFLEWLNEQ

Turning to “AAC2, the major ADP/ATP carrier (endogenous) (from UniProt P18239 1-318) (natural protein)”, the percent of the total AAC2 content associated with the respiratory supercomplex fell in the range of 0.5 to 1%.

The values above are taken from article PMC2528576.
